According to patent publication US11033507B2, “Method of synthesis of silica vesicles and use thereof” (THE UNIVERSITY OF QUEENSLAND, priority 2013, dated 2021):

Key:
[1] = tested on: SCC25 cells; test: MTT cell toxicity, SCC25; type: cell-based, human
Method: SCC25 cells were seeded in a 96-well plate at a density of 2×10^4 cells per well and cultured in 5% CO2 at 37° C. for 24 h. Then, free RNase A, SVs, RNase A loaded SVs and corresponding denatured samples were added to the cells in DMEM medium at an RNase A dosage of 4-16 μg/ml, and the cells were incubated in 5% CO2 at 37° C. for 24 and 72 h. Subsequently, MTT reagent (10 μl/well volume from 5 mg/mI solution in PBS) was added to each well, shaken for 10 seconds and then incubated at 37° C. for 4 h. The precipitants were collected following centrifugation for the above cell toxicity experiments after the removal of the supernatant. Then DMSO (100 μl) was added to each well to dissolve the formazan crystals and the optical density (OD) was recorded at 570 nm using a microplate reader (SpectraMax M5, Bio-Strategy, Ltd). Cells incubated in the absence of SVs and RNase A were used as the control. All the experiments were performed in triplicate for each group.
Another series of control groups was prepared after heat and acid denaturation of RNase A, including both free RNase A and RNase A loaded SVs. In the denaturation process, 50 μl of HCl (0.01M, pH 2.0) solution was added in to 1 mg of free RNase A or 6-9 mg of SVs (loaded with 1 mg RNase A). The mixtures were incubated at 65° C. for 40 min, cooled and centrifuged. NaOH (0.01M) solution was added dropwise into the mixtures until the pH reached ˜7, indicated by precise pH paper and used as a denatured RNase A group in the present experiment.
The stability and activity of RNase A loaded in hydrophobic modified SV was further investigated with acid and heat treatment. In a treatment procedure, 50 μl 0.01 M HCl (pH 2) was added to ˜1 mg RNase A loaded in SV. The mixture was kept in 65° C. for 40 min, then neutralized with 0.01 M NaOH solution (pH 12) until the pH reached 7. The final RNase A concentration was then diluted to 0.5 mg/ml. Free RNase A was also treated accordingly as a control group. […]

[2] = tested on: HCT116 cells; test: Cell viability after acid and heat treatment, HCT116; type: cell-based; settings: 24 to 72 h; samples acid and heat treated
[3] = biological target: RNase A (Bos taurus, UniProt P61823); test: Thermal unfolding of RNase A by differential scanning calorimetry; type: physicochemical; settings: 10 mM PBS, RNase A 0.5 mg/ml, heating rate 60° C./h
Method: The thermal unfolding of RNase A was measured by differential scanning calorimetry (DSC) in the range of 10−130° C. The DSC was carried out using a VP DSC microcalorimeter (MicroCal Company, USA) with a heating rate of 60° C./h. In a typical procedure, the RNase A/SV was suspended in 10 mM PBS solution with the RNase A concentration of 0.5 mg/ml. A reference suspension was also prepared using only SV the same concentration. The reference and sample suspension were injected in the corresponding cells for DSC measurements. The DSC curve of free RNase A was also obtained.

B1: free RNase A: ribonuclease A, model therapeutical protein (protein, UniProt P61823 27-150, looked up)
Ribonuclease pancreatic: KETAAAKFERQHMDSSTSAASSSNYCNQMMKSRNLTKDRCKPVNTFVHESLADVQAVCSQKNVACKNGQTNCYQSYSTMSITDCRETGSSKYPNCAYKTTQANKHIIVACEGNPYVPVHFDASV
- cellular toxicity / inhibition of SCC25 cells ([1]; 24 to 72 h, samples acid and heat treated): no inhibition
- cytotoxicity to SCC25 cells ([1]; free protein after denaturation): no cytotoxicity
- cytotoxicity to SCC25 cells ([1]; free protein, not denatured): no cytotoxicity
- cellular toxicity / inhibition of HCT116 cells [2]: no inhibition
- midpoint temperature for the RNase A thermal unfolding (Tm) [3]: 63.6 °C
